Tested on: Escherichia coli TOP10
Assay: shrunken log2 fold change of peptide-encoding DNA abundance (4.5 h post-induction vs induction); higher = less antimicrobial activity (less host growth inhibition)
Conditions: time post-induction: 4.5 h; library: site-saturation at positions 5, 18, 19, 20
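Further: peptides expressed intracellularly from a pBAD plasmid library in pooled LB shake-flask culture, induced with 0.3% L-arabinose, DNA abundance read by NGS, three biological replicates, DESeq2 with apeglm shrinkage.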

Sequence | shrunken log2 fold change
RRIRYRPPRLPRPRPRPHPRPRP | -0.392
RRIRIRPPRLPRPRPRPSQQPRP | -0.11
RRIRERPPRLPRPRPRPGGRPRP | 0.27
RRIRRRPPRLPRPRPRPKVDPRP | 0.0529
RRIRNRPPRLPRPRPRPSDTPRP | -0.00711
RRIRHRPPRLPRPRPRPLTKPRP | 0.133
RRIRGRPPRLPRPRPRPFMAPRP | 0.211
RRIRKRPPRLPRPRPRPWWPPRP | 0.0304
RRIRLRPPRLPRPRPRPPNKPRP | -0.123
RRIRIRPPRLPRPRPRPPRWPRP | 0.514
RRIRHRPPRLPRPRPRPGTPPRP | 0.104
RRIRCRPPRLPRPRPRPPTGPRP | 0.232
RRIRIRPPRLPRPRPRPSKVPRP | -1
RRIRKRPPRLPRPRPRPVPEPRP | 0.151
RRIRPRPPRLPRPRPRPYKEPRP | -0.382
RRIRTRPPRLPRPRPRPGREPRP | 0.0772
RRIRQRPPRLPRPRPRPTFEPRP | -0.177
RRIRARPPRLPRPRPRPQFMPRP | 0.546
RRIRHRPPRLPRPRPRPASIPRP | -0.164
RRIRERPPRLPRPRPRPMETPRP | 0.015
RRIRQRPPRLPRPRPRPYEEPRP | -0.434
RRIRRRPPRLPRPRPRPMIDPRP | -0.1
RRIRRRPPRLPRPRPRPMHVPRP | 0.281
RRIRTRPPRLPRPRPRPYSDPRP | -0.148
RRIRYRPPRLPRPRPRPSNCPRP | -0.107

Sequence | shrunken log2 fold change
RRIRMRPPRLPRPRPRPILWPRP | 0.00288
RRIRARPPRLPRPRPRPYRQPRP | -0.0187
RRIRARPPRLPRPRPRPFECPRP | -0.00737
RRIRERPPRLPRPRPRPQCCPRP | -0.106
RRIRERPPRLPRPRPRPVDDPRP | 0.133
RRIRNRPPRLPRPRPRPPLFPRP | 0.00419
RRIRMRPPRLPRPRPRPIWPPRP | 0.769
RRIRTRPPRLPRPRPRPHKAPRP | -0.0306
RRIRMRPPRLPRPRPRPVMSPRP | 0.134
RRIRIRPPRLPRPRPRPRAEPRP | -0.202
RRIRYRPPRLPRPRPRPCADPRP | -0.21
RRIRARPPRLPRPRPRPVCRPRP | 0.505
RRIRLRPPRLPRPRPRPSMRPRP | 0.421
RRIRHRPPRLPRPRPRPCVYPRP | -0.62
RRIRSRPPRLPRPRPRPFDYPRP | -0.0792
RRIRRRPPRLPRPRPRPSRFPRP | 0.536
RRIRQRPPRLPRPRPRPPFYPRP | -0.0349
RRIRHRPPRLPRPRPRPTHIPRP | -0.468
RRIRARPPRLPRPRPRPNKLPRP | -0.206
RRIRTRPPRLPRPRPRPMALPRP | -0.0542
RRIRFRPPRLPRPRPRPSDQPRP | -0.302
RRIRCRPPRLPRPRPRPTGEPRP | 0.156
RRIRLRPPRLPRPRPRPSTKPRP | -0.0833
RRIRMRPPRLPRPRPRPTESPRP | 0.0389
RRIRHRPPRLPRPRPRPMHRPRP | 0.00128

Sequence | shrunken log2 fold change
RRIRHRPPRLPRPRPRPPMGPRP | 0.343
RRIRTRPPRLPRPRPRPKDPPRP | 0.0667
RRIRERPPRLPRPRPRPKDVPRP | -0.152
RRIRLRPPRLPRPRPRPCYGPRP | -0.0306
RRIRWRPPRLPRPRPRPQDWPRP | 0.36
RRIRRRPPRLPRPRPRPYWFPRP | -0.299
RRIRVRPPRLPRPRPRPYKKPRP | 0.0251
RRIRSRPPRLPRPRPRPIGSPRP | 0.136
RRIRHRPPRLPRPRPRPPFDPRP | -0.178
RRIRNRPPRLPRPRPRPMEQPRP | -0.208
RRIRHRPPRLPRPRPRPPHYPRP | 0.0175
RRIRYRPPRLPRPRPRPLRYPRP | -0.426
RRIRPRPPRLPRPRPRPHVLPRP | -0.0256
RRIRGRPPRLPRPRPRPYIWPRP | -0.107
RRIRHRPPRLPRPRPRPKNWPRP | 0.136
RRIRCRPPRLPRPRPRPDQNPRP | -0.138
RRIRNRPPRLPRPRPRPGALPRP | 0.0726
RRIRWRPPRLPRPRPRPAPFPRP | 0.0259
RRIRGRPPRLPRPRPRPLVEPRP | 1.2
RRIRERPPRLPRPRPRPDIGPRP | -0.0541
RRIRYRPPRLPRPRPRPLQCPRP | -0.344
RRIRERPPRLPRPRPRPAHSPRP | -0.159
RRIRMRPPRLPRPRPRPEHKPRP | 2.5
RRIRMRPPRLPRPRPRPCANPRP | -0.0263
RRIRDRPPRLPRPRPRPMTHPRP | 0.0105

Sequence | shrunken log2 fold change
RRIRERPPRLPRPRPRPQTNPRP | -0.554
RRIRVRPPRLPRPRPRPCGAPRP | 0.279
RRIRNRPPRLPRPRPRPAFSPRP | -0.183
RRIRNRPPRLPRPRPRPPQSPRP | 0.331
RRIRFRPPRLPRPRPRPSTGPRP | -0.787
RRIRHRPPRLPRPRPRPNFLPRP | -0.322
RRIRHRPPRLPRPRPRPMTAPRP | -0.135
RRIRYRPPRLPRPRPRPIRSPRP | -0.214
RRIRWRPPRLPRPRPRPGRRPRP | 0.106
RRIRIRPPRLPRPRPRPRNYPRP | 0.0483
RRIRERPPRLPRPRPRPNKTPRP | 0.0491
RRIRLRPPRLPRPRPRPQECPRP | -0.00874
RRIRKRPPRLPRPRPRPFVDPRP | -0.0489
RRIRYRPPRLPRPRPRPGKAPRP | -0.00206
RRIRGRPPRLPRPRPRPHSYPRP | 0.231
RRIRTRPPRLPRPRPRPRELPRP | 0.267
RRIRIRPPRLPRPRPRPTCVPRP | 0.00176
RRIRQRPPRLPRPRPRPIQDPRP | 0.0208
RRIRGRPPRLPRPRPRPQYIPRP | -0.27
RRIRHRPPRLPRPRPRPNPPPRP | 0.0899
RRIRSRPPRLPRPRPRPERAPRP | 0.399
RRIRERPPRLPRPRPRPAYQPRP | 0.0953
RRIRFRPPRLPRPRPRPVLHPRP | -0.376
RRIRKRPPRLPRPRPRPHLQPRP | 0.224
RRIRLRPPRLPRPRPRPTVWPRP | 0.387

Sequence | shrunken log2 fold change
RRIRRRPPRLPRPRPRPVSFPRP | 0.178
RRIRGRPPRLPRPRPRPIDYPRP | -0.0822
RRIRPRPPRLPRPRPRPMKYPRP | -0.157
RRIRERPPRLPRPRPRPWASPRP | -0.00133
RRIRQRPPRLPRPRPRPVGDPRP | 0.203
RRIRNRPPRLPRPRPRPDQPPRP | 0.00646
RRIRARPPRLPRPRPRPFWSPRP | 0.061
RRIRCRPPRLPRPRPRPNIDPRP | -0.539
RRIRRRPPRLPRPRPRPHQSPRP | 0.128
RRIRFRPPRLPRPRPRPKEDPRP | 0.122
RRIRWRPPRLPRPRPRPQNHPRP | -0.585
RRIRSRPPRLPRPRPRPSHVPRP | -0.3
RRIRDRPPRLPRPRPRPVIYPRP | 0.011
RRIRHRPPRLPRPRPRPMPQPRP | 0.235
RRIRNRPPRLPRPRPRPFPRPRP | 0.0857
RRIRYRPPRLPRPRPRPYISPRP | -0.00213
RRIRKRPPRLPRPRPRPGWPPRP | 0.424
RRIRRRPPRLPRPRPRPEDWPRP | 0.791
RRIRMRPPRLPRPRPRPKTFPRP | 0.0371
RRIRARPPRLPRPRPRPWIIPRP | -0.0127
RRIRDRPPRLPRPRPRPKCVPRP | 0.104
RRIRGRPPRLPRPRPRPEQTPRP | 0.388
RRIRNRPPRLPRPRPRPFDIPRP | -0.701
RRIRQRPPRLPRPRPRPSMQPRP | -0.0429
RRIRCRPPRLPRPRPRPVLYPRP | -0.432

Reference: the supplement of paper PMC9112550, “Optimization of the antimicrobial peptide Bac7 by deep mutational scanning” (BMC Biology, 2022)
